Activity data for two substances are collected here from patent publication US20040253631.

The target in data set [1] is T1, Lambda integrase (Int) (bacteriophage lambda) (UniProt P03700).
T1 sequence: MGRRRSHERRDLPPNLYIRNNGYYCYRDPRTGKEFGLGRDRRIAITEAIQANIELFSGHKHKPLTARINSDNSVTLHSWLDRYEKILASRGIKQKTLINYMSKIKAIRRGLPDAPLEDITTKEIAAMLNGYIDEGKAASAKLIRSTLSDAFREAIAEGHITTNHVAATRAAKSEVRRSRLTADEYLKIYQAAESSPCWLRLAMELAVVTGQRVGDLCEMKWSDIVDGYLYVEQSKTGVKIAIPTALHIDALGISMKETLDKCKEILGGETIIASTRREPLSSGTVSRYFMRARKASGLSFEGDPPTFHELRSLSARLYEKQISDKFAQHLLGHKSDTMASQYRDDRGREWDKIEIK
Briefly: cell_activity. Particulars: Xis, IHF.

The target in data set [2] is Cre recombinase (bacteriophage P1) (UniProt P06956). The data set can be described thus: cell_activity. The note with it: background 140 without Cre; 37 C; 19/24 correct product.
UniProt P06956, sequence (P06956 whole entry): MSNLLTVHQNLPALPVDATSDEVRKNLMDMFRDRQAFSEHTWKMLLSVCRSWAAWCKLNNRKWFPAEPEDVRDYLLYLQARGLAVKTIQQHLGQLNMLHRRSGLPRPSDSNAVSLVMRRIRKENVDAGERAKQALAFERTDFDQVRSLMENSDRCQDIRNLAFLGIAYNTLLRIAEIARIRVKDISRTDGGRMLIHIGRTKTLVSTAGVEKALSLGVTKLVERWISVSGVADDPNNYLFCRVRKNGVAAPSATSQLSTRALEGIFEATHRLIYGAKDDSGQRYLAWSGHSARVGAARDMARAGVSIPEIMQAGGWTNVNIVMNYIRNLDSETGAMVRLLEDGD

With attL wt, the activity was 4 colonies in data set [1] (partner attR'1 (N5), Cre, background 1); 0 colonies in data set [1] (partner attR'2 (N6), Cre); 147 colonies in data set [1] (partner attR'wt, Cre (loxP for second recombination), background 1).
Regarding loxP / loxP 511 plasmids, in data set [2], the activity was determined as 760 colonies.
